The values below come from article PMC3038193.

The experiment concerns the target ApoE2 (C112S, C158S, A102C), labeled with Alexa488 or Alexa546 at position 102. Briefly: FRET or BRET. On the technique in general: BRET reads energy transfer from a luciferase to a nearby fluorophore.

The substance “ApoE2 (C112S, C158S, A102C), labeled with Alexa488 or Alexa546 at position 102 (natural protein)” had a k−1 (dissociation, dimer to monomers) of 0.00066 s⁻¹ and a k−2 (dissociation, tetramer to dimers) of 0.0036 s⁻¹.
